From patent publication CN106749661A (UNIV BEIJING, dated 2017) come the findings set out here.

One experiment concerns the target T1, PC3细胞内源性PSMP蛋白 (human, UniProt Q1L6U9 36-139, limits assumed).
T1 construct: Detected by Western blot and by immunocytochemistry in PC3 cells
T1 sequence (looked up): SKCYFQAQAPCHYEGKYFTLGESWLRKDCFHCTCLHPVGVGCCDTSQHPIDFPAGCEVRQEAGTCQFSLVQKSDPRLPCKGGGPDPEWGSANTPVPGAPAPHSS
Description: Western blot of PC3 cells. For orientation: Immunoblotting shows a protein as a band on a membrane.

The next experiment has as its target T2, PSMP真核蛋白 (human, UniProt Q1L6U9 36-139).
T2 construct: mature; Eukaryotically expressed secreted PSMP; The expression construct and any tags are not described; also called 重组PSMP真核蛋白; PSMP分泌蛋白
T2 sequence (looked up): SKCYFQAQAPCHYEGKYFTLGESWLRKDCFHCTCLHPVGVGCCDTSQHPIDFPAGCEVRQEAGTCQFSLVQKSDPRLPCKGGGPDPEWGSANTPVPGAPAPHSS
Description: ELISA. Background: ELISA stands for enzyme-linked immunosorbent assay.

For experiment [1], the target named is T3, PSMP蛋白 (human, UniProt Q1L6U9 36-139, limits assumed).
T3 sequence (looked up): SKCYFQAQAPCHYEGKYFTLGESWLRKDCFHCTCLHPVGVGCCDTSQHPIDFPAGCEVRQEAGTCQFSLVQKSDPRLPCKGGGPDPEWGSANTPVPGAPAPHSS
Description: cytometric bead array, rabbit polyclonal on beads, 3D5 at 5 μg/ml as detection antibody.

Experiment [2] has as its target T3, PSMP蛋白. Description: ELISA with 293T expression supernatant.

B1: 抗PSMP的单克隆抗体3D5 (antibody, V domains shown)
VH: EVQLQQSGPELVKPGASVKISCKASGYSFTGYFMNWVMQSHGKSLEWIGRINPYNGDTFYNQKFKGKATLTVDKSSSTAHMELRSLASEDSAVYYCARGGDGYYAFAYWGQGTLVTVSA
VL: NIVMTQSPKSMSMSVGERVTLSCRASENVGTYVSWYQQKPEQSPKLLIYGASNRYTGVPDRFTGSGSATDFTLTISSVQAEDLADYHCGQSYSYMYTFGGGTKLEIKR
notes: Mouse hybridoma antibody, heavy chain IgG1, light chain kappa, purified from ascites on Protein G Sepharose; also called 鼠单抗3D5; 3D5中和抗体
With B1, the binding result with PC3细胞内源性PSMP蛋白, in the experiment with PSMP真核蛋白 and with PSMP蛋白 [1] was “binds” each time.

B2: 共转染含有3D5重链和轻链基因的质粒的293T上清中表达的抗体 (antibody, V domains shown)
VH: EVQLQQSGPELVKPGASVKISCKASGYSFTGYFMNWVMQSHGKSLEWIGRINPYNGDTFYNQKFKGKATLTVDKSSSTAHMELRSLASEDSAVYYCARGGDGYYAFAYWGQGTLVTVSA
VL: NIVMTQSPKSMSMSVGERVTLSCRASENVGTYVSWYQQKPEQSPKLLIYGASNRYTGVPDRFTGSGSATDFTLTISSVQAEDLADYHCGQSYSYMYTFGGGTKLEIKR
notes: It was tested as culture supernatant
As for B2, the binding result in the experiment with PSMP蛋白 [2] is listed as “binds”.
